Laboratory results as given in publication PMC2289016.

What was measured:
[1] = biological target: rabbit skeletal muscle actin (rabbit) (UniProt P68135); test: actin elongation rate at the barbed end
[2] = biological target: rabbit skeletal muscle actin (rabbit) (UniProt P68135); test: ultrafiltration

Kd [1]: 22.5 µM
Kd [2]: 2.3 µM
Substance: human platelet profilin (from UniProt P07737 1-140) (natural protein)
